± gives the half width of the 95% confidence interval.
Test: folding stability dG unfold from chymotrypsin proteolysis; higher = more stable
Procedure, shortened: (§1)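 Only designs with AlphaFold2 dimer inter-PAE above 15 were retained; each was a mini-protein under 80 residues with no cysteine, in a PA-tagged cDNA display construct. After digestion with trypsin and chymotrypsin and sequencing, K50 was inferred by Bayesian fitting of counts, and unfolding free energy was derived per protease or combined against a sequence-predicted unfolded-state K50 and a shared folded-state K50.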

Sequence | folding stability dG unfold [kcal/mol]
SAGGMTFSGVTREQALAIAKALEEEGYVLERVEVVEFPEDGTVRALVVVRDPETDEPLAEIELDIKPSAGGS [r16_750_TrMRF] | 1.81 ± 0.036
SAGGSMAPDVKVEVEVFPDGLVLFRLTLPDGRPFLALAEVREDGRVKVVVFDLYPGEKVEFEIPIKSAGGSA [r2_99_TrMRF] | 3.7 ± 0.045
SAGGSADVKITEVHNPHRNPNGRPFFMVRIKWPDNGTHTIMMNPNDLDDLLAQLPPNWKIDEIHPISAGGSA [r15_339_TrROS] | 1.68 ± 0.055
SAGGPSHPLGPVALTLDPAASTLTVTLGDEVLTLPVPPGVTATATSYPDSVTVTLTFPDGTVVTVTLPLSAG [r5_21_JUSTAS] | 3.18 ± 0.034
SAGGKKKKVKVKVVKVEKLENGTYKVVLEVEVDGKKITLVKEFKTKEDLEKKPKEIEITVEELKKLLKSAGG [r13_540_TrROS_Hall] | 4.32 ± 0.22
SAGGSAGGSAGGKKVKVIKVSVTYDPKTKKLTIKVEKTGKTYTIPLKEIELVNGYLKIKSAGGSAGGSAGGS [r10_942_TrROS_Hall] | 2.45 ± 0.11
SAGGSAGGSAGGKKTYVKKIVTEKKKVKLFFYDKKTGELLEEKEVEVIKTKIYVTKPDEFSAGGSAGGSAGG [r7_573_TrMRF] | 0.884 ± 0.31
SAGGSAPPPNTIPIRVKIEDKNGKWETITFPVKSGDDAKDFLNDNFPNVKVEYDPGAGWVTIEVPKSAGGSA [r15_313_TrROS] | 0.2 ± 0.094
SAGGSAGGSKIKIYPYSTKGKNEVYYLIETENNYLYIKVTIYYDPKTGKPVKIEIKEIFTLPKSAGGSAGGS [r12_70_TrMRF] | 3.07 ± 0.12
SAGGSAGGSLHPSQPLLVTVEVEVDPETGTVRLRVSVWVPGPRERLLERELEVPLHSLPEGALSAGGSAGGS [r12_145_TrMRF] | 2.49 ± 0.015
SETETITVEVTMPAEELANMSAEELAARLREAFPDLKITSISITVEEVEDPETGERLVRVTVTITVERVPSA [r9_1189_TrROS_Hall] | 3.4 ± 0.068

Test: folding stability dG unfold from trypsin proteolysis; higher = more stable
Procedure, shortened: as §1

Sequence | folding stability dG unfold [kcal/mol]
SAGGSAAITFPSDKTATVLSEEYDPVKKTTTVKMKVGNKEVTATLSPDGTVTIKLPDGKEETYPVGSAGGSA [r15_111_JUSTAS] | 1.18 ± 0.057
SAMKIVEIVEYDKEKKKIRIKIEVNGKLLEIEIEAESEEEVEEALKKLKEELEFELPDGKKVRITEIEISAG [r14_422_TrROS_Hall] | 0.749 ± 0.15
SAGGSAGGSAGGPRMTVVDLDPEKGDHLYLVEIPDTNEVVLVSSSELLRLAEAGPVELKGSAGGSAGGSAGG [r7_452_TrMRF] | -0.107 ± 0.27
SAGKTVEIKVTLKITRYEKLPDGSVKKEVKTLTITVTMSEEELNKEEIKNALKELLEKLPPDVKKIEITSAG [r5_849_TrROS_Hall] | 2.8 ± 0.17
SAGGSAGGEDRLLLRVEVIVGGVPFEPVLEVDHPELRELLEEGRVLVVELPGGAVGRLYAEPLASAGGSAGG [r6_478_TrMRF] | 0.7 ± 0.049
SMKKNTLTLTVKVKVTVTVVKKKKDGKEEVVKKETVEVTVKVTFLSKEELEKLKKELEKLKKELEELKKKSA [r9_1192_TrROS_Hall] | 2.72 ± 0.27
SAGGNSMTILFIFPENGWIIRITIKFPDGNGKIDDIDIEREPVPNGQVKYTIRMPDGMEISVEIIPLDSAGG [r13_515_TrROS] | 3.99 ± 0.1
SAGDAIADLLKEAGFEIDSVDSIEPTDGSYVIGFKFEFPNGWYMEITIWIDPNNPDKIEIDIKMQPPDESAG [r5_683_TrROS] | 2.6 ± 0.28
SAGGSAMIEEKLIEIPPIPVPYPDGSVQKVPVLVEETVELKPFIDPNTDKTSTAKTVTKRKVIFPSSAGGSA [r15_884_JUSTAS] | -0.255 ± 0.21
SAYRIEIEIPSPKLAKKLEALLPPNYRIDNVRRNKNDNQVKITVEYDPGMPPSRMRRIHKEIKELIKELSAG [r14_306_TrROS] | 1.24 ± 0.088
SAGGSAGGSAGGSGMTSTTYRLPEGNVVLVETFDPATGTVTLEIRGPPSVERTLTLPVASAGGSAGGSAGGS [r4_443_JUSTAS] | 2.63 ± 0.29
SAGGSAGGSAGGEIKSGDKVVLVFNEDGKGYKAYYEEELEKLLKEDPKIKKVLVVDVPAESAGGSAGGSAGG [r7_118_TrMRF] | -0.173 ± 0.064
SAGGSAGGSAGKVVLAKAKVTPPDGSEYEFDLAIEVPDDVVLVVGLHFDYPDQVDFVFEGSAGGSAGGSAGG [r11_781_TrMRF] | 1.28 ± 0.03
SAGGSAGGSAGPKIKIKKFPDFLIAEIEFPDGKKATAIFDPKTGKIIVFVGDKPIEIDIGSAGGSAGGSAGG [r11_846_TrMRF] | 2.16 ± 0.059
SAGGSAGGSAGGSNDNVVPITILFVDPGKDDRLYLREIRLRIYENGDIEAEVKVYELPLSAGGSAGGSAGGS [r10_598_TrMRF] | 2.87 ± 0.11
SAGGSAGGKAKIKKIEVELNEDGTLKVTAYDEETNEKITLEVKLPKPKPVYFDEEKLKEELEKKSAGGSAGG [r6_627_TrROS_Hall] | -0.313 ± 0.19
SAGGSIEEAKKAAEKLAKEIAEKKGWTVKSVEVEKLPDGTVRATITIKYPDGSEETIEVTIPPNTPLSAGGS [r8_175_JUSTAS] | 2.63 ± 0.11
SAGGSAGGSAGGENPEYKPKLLVLVKLEVNGEYYYREFETLEELENYNDPNLKVVAVADLSAGGSAGGSAGG [r7_793_TrMRF] | 1.27 ± 0.033
SAGGSLPELLKLAKELAKKLGAKDLTAKESGEITIKSPENITITVSTEDGEPVVTINNTSTSSTIPLSAGGS [r16_296_JUSTAS] | -0.36 ± 0.32
SAGGSAGGSAGMKLPEGWEIVAVYRDKETNKLYLIVRDTKTKKLLIVDLDTKKIISAEELSAGGSAGGSAGG [r11_268_TrROS_Hall] | 3.63 ± 0.18
SAGGSAGGSAGGSSYQLKLEAEFLVGDSSGKLYKVKLTITVNEDGSISIDLEVLSVFDVSAGGSAGGSAGGS [r4_496_TrMRF] | 4.16 ± 0.2
